This passage reports Km, kcat and kcat/Km results from patent US20030175848A1, “Substituted dithiobisnitrobenzenes and their applications” (Institut Pasteur De Lille, priority 1998, published 2003).

Substrate in the series: CN(C)CCCNC(=O)c1cc(SSc2ccc([N+](=O)[O-])c(C(=O)NCCCN(C)C)c2)ccc1[N+](=O)[O-]
The series can be described thus: purified protein, by the assay type. Conditions: other: substrate of recombinant TcTR, 25° C., buffer A pH 7.25, 0.2 mM NADPH, * = estimated at low substrate concentrations (15-200 μM), inhibition effects.

Protocol: The TcTR concentration is determined by measuring the number of subunits containing FAD at 461 nm (ε=11.3 mM^−1×cm^−1); the enzymatic activity is tested as specified in (28). One TR unit corresponds to 1 μmol of T(S)2 reduced per minute at 25° C. in a buffer A (20 mM Hepes, pH 7.25 containing 1 mM EDTA and 0.15 M KCl).
The enzyme stock solutions used for the kinetic determinations are pure (verification in SDS-PAGE) and have a specific activity of 137 U/mg in the T(S)2 reduction test performed in the presence of 500 μM NADPH and 518 μM T(S)2 in a buffer A.
All the kinetic studies are carried out in the same buffer at 25° C., in the presence of 200 μM of NADPH.
All the tests were carried out at 25° C. in 20 mM HEPES, 1 Mm EDTA, 150 mM KCl, at pH 7.25 (buffer A) and in the presence of 0.2 mM NADPH.

B1: trypanothione reductase from Trypanosoma cruzi (TcTR) (Trypanosoma cruzi) (protein)
chain: MMSKIFDLVVIGAGSGGLEAAWNAATLYKKRVAVIDVQMVHGPPFFSALGGTCVNVGCVPKKLMVTGAQYMEHLRESAGFGWEFDRTTLRAEWKKLIAVKDEAVLNINKSYEEMFRDTEGLEFFLGWGSLESKNVVNVRESADPASAVKERLETENILLASGSWPHMPNIPGIEHCISSNEAFYLPEPPRRVLTVGGGFISVEFAGIFNAYKPKDGQVTLCYRGEMILRGFDHTLREELTKQLTANGIQILTKENPAKVELNADGSKSVTFESGKKMDFDLVMMAIGRSPRTKDLQLQNAGVMIKNGGVQVDEYSRTNVSNIYAIGDVTNRVMLTPVAINEAAALVDTVFGTNPRKTDHTRVASAVFSIPPIGTCGLIEEVASKRYEVVAVYLSSFTPLMHNISGSKYKTFVAKIITNHSDGTVLGVHLLGDNAPEIIQGVGICLKLNAKISDFYNTIGVHPTSAEELCSMRTPSYYYVKGEKMEKPSEASL
For the protein B1, the Michaelis-Menten constant (Km) – broadly, the substrate concentration at which the rate is half of its maximum – was 35 µM; the kcat (commonly the number of substrate molecules converted per active site and unit of time at saturation) is 125 s⁻¹; the kcat/Km (as a rule, the second-order rate constant that governs catalysis at low substrate concentration) is 3.6e+06 M⁻¹ s⁻¹.
